Patent publication US20230025129A1 (KYMAB, published 2023)

T1: mouse matriptase-2 ECD protein his tag (mouse, UniProt Q9DBI0 80-811)
T1 construct: aa 80-811 of Q9DBI0 with C-terminal linker and His tag; also called mouse MTP-2 ECD; moMTP-2
T1 sequence: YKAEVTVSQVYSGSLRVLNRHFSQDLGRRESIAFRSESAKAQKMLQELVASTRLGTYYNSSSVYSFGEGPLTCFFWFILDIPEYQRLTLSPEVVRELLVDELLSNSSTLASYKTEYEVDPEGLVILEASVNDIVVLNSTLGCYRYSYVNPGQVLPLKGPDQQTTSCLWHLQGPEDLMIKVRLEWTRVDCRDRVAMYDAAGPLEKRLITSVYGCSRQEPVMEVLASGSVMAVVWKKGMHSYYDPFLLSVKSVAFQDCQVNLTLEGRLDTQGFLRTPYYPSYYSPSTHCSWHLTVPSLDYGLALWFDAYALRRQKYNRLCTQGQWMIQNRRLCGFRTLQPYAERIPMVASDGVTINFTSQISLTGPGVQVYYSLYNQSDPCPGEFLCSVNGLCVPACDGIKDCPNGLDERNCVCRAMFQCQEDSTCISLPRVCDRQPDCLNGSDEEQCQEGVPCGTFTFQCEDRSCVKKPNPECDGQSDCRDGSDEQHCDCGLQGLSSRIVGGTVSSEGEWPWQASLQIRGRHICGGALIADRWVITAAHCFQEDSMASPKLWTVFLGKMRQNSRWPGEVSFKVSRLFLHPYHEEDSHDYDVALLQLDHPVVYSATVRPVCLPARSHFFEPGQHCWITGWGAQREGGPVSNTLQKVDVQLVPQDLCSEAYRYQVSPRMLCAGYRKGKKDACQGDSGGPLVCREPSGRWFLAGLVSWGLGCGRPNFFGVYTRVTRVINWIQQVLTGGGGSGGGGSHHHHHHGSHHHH

T2: human matriptase-2 ECD protein his tag (human, UniProt Q8IU80 78-811)
T2 construct: also called human MTP-2 ECD; huMTP-2
T2 sequence: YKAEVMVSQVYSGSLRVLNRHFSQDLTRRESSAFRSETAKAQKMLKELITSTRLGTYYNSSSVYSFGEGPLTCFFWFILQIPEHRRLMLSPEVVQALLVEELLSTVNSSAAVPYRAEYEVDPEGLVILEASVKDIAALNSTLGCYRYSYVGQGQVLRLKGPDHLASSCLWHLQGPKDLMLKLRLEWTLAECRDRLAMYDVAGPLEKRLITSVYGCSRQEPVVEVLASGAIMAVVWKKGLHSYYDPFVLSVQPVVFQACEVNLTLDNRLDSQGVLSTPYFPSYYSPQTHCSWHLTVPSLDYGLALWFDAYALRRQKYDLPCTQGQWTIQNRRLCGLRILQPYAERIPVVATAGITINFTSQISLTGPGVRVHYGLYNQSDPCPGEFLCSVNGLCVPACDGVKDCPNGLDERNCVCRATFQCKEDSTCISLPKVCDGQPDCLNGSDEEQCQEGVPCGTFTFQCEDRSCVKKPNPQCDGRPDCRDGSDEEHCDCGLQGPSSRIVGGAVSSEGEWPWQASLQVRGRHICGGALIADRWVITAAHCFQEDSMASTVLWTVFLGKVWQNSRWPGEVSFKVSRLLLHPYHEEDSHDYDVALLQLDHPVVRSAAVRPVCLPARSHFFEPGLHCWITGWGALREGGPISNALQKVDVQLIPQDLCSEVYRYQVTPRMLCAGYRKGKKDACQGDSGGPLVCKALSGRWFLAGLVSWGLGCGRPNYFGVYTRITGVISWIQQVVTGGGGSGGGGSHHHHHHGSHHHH

T3: human MTP-2 expressed on HEK293 cells (human, UniProt Q8IU80 1-811)
T3 sequence: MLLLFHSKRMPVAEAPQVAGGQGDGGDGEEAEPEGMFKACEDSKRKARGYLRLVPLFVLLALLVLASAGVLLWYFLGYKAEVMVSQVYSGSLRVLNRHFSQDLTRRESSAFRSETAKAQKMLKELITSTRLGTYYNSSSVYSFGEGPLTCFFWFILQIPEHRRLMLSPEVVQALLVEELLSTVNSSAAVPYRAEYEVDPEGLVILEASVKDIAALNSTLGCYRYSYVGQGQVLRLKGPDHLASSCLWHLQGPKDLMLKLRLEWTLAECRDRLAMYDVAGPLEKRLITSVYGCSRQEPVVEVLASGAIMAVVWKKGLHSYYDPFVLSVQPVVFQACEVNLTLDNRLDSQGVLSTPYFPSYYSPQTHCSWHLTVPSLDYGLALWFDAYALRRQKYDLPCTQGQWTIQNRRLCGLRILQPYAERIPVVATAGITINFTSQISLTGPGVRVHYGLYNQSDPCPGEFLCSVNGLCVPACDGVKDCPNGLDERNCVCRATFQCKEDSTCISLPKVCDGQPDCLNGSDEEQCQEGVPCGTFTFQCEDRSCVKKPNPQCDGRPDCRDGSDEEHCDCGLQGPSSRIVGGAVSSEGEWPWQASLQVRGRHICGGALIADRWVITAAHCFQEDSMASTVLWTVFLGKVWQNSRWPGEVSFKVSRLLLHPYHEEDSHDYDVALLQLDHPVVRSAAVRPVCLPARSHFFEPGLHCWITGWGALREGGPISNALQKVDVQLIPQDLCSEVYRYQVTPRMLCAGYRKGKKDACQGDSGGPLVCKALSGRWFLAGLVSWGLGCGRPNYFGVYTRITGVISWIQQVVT

T4: human matriptase-2 mask ECD protein his tag (human, UniProt Q8IU80 78-576)
T4 construct: MTP-2 ECD without the serine protease domain, with C-terminal linker and His tag; also called headless huMTP-2 ECD 78-576 aa; headless human MTP-2 ECD
T4 sequence: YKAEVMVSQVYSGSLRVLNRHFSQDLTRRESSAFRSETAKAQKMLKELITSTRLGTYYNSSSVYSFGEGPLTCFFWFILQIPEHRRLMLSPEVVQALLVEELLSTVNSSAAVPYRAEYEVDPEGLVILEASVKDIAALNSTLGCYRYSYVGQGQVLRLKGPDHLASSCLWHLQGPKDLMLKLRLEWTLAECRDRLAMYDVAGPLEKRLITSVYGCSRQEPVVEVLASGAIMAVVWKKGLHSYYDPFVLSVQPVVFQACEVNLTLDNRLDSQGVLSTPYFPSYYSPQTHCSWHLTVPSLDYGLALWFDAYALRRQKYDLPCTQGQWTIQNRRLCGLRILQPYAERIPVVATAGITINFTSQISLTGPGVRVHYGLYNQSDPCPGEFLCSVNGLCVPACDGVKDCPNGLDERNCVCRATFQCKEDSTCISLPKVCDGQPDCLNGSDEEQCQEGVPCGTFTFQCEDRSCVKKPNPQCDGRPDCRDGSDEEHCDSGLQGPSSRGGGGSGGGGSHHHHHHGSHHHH


Columns and labels:
[1] = molecular target: T1, mouse matriptase-2 ECD protein his tag; assay: SPR (Biacore 8K), huIgG4PE captured on anti-human Fc, MTP-2 ECD as analyte, 1:1 fit
Protocol: (§1) Off-rate screening was performed by surface plasmon resonance (SPR), using a Biacore 8K system (GE Healthcare). Anti-human Fc mix (˜1000 RU) were immobilised in both active and reference channels in HBS-P+ buffer (GE BR100671) pH 7.4. Anti-MTP-2 hulgG4PE antibodies were then captured for 60 sec at 10 μl/min at 1 μg/ml concentration (approximatively 35 and 50 RU were captured) only on the active channel. MTP-2 ECD protein analytes were then injected (at 100, 25, 6.25, 1.56 and 0 nM concentrations) for 120 sec (association time) at 30 μl/min and dissociation monitored for 600 sec. Multiple cycle kinetics mode was used with all 8 channels being used. Reference and background were subtracted from the sensorgrams for each antibody and data was fitted using a 1:1 interaction model in the Biacore evaluation software. Rmax, ka, kd globally fitted, RI=0.

[2] = molecular target: T2, human matriptase-2 ECD protein his tag; assay: as above
Protocol: as §1

[3] = molecular target: T1, mouse matriptase-2 ECD protein his tag; assay: cell-based or functional assay
[4] = molecular target: T3, human MTP-2 expressed on HEK293 cells; assay: cell-based or functional assay
[5] = molecular target: T2, human matriptase-2 ECD protein his tag; assay: cell-based or functional assay
[6] = molecular target: T4, human matriptase-2 mask ECD protein his …; assay: SPR, antibody captured, headless ECD as analyte
Protocol: as §1
Binding was also assessed using the above SPR method with “headless” huMTP-2 ECD 78-576 aa instead of the full ECD. Headless ECD corresponds to the MTP-2 ECD without the serine protease domain.

Binding Late top conc [1] | Kd [1] [nM] | koff [1] [s⁻¹] | kon [1] [M⁻¹ s⁻¹] | Binding Late top conc [2] | Kd [2] [nM] | Stoichiometry [2] | koff [2] [s⁻¹] | kon [2] [M⁻¹ s⁻¹] | Inhibition enzymatic activity mouse MTP2 protein (IC50) [3] [nM] | Inhibition enzymatic activity human MTP2 on cells (IC50) [4] [nM] | Inhibition enzymatic activity human MTP2 protein (IC50) [5] [nM] | Stoichiometry [1] | Binder | binding result [6]
4.5 | 24.4 | 0.000324 | 13300 | 7.9 | 10.5 | 0.63 | 0.000442 | 42300 | 9.76 | 3.51 | 17.7 |  | NORI-010 (antibody, human IgG4 S228P, lambda, human IgG4PE, lambda) heavy: not shown light: QSALTQPPSASGSPGQSVTISCTGTSSDVGFYNFVSWYQQHPDKAPKVMIYEVSKRPSGVPDRFSGSKSGNTASLTVSGLQAEDEADYYCSSYAGSNKVVFGGGTKLTVLGQPKAAPSVTLFPPSSEELQANKATLVCLISDFYPGAVTVAWKADSSPVKAGVETTTPSKQSNNKYAASSYLSLTPEQWKSHRSYSCQVTHEGSTVEKTVAPTECS | no binding (tested: analyte up to 100 nM)
4.6 | 29 | 0.000337 | 11600 | 8.5 | 9.13 | 0.6 | 0.000427 | 46700 | 11.5 | 4.26 | 21.2 | 1.08 | NORI-012 (antibody, human IgG4 S228P, lambda, V domains shown, human IgG4PE, lambda) VH: EVQLVESGGGLVQPGRSLRLSCAASGFTFDDHVMYWVRQAPGKGLEWVSGISWNSDTIGYADAVKGRFTISRDNAKNVLYLHMNSLRPEDTALYYCAREKDGDFYYNYFVMDVWGQGTTVTVSP VL: QSALTQPPSASGSPGQSVTISCTGTSSDVGFYNFVSWYQQHPDKAPKVMIYEVSKRPSGVPDRFSGSKSGNTASLTVSGLQAEDEADYYCSSYAGSNKVVFGGGTKLTVLG | no binding (tested: analyte up to 100 nM)
5 | 19.6 | 0.000693 | 35400 | 8.6 | 15 | 0.48 | 0.00112 | 74800 | 17.6 | 5.68 | 55.5 | 0.47 | NORI-009 (antibody, human IgG4 S228P, lambda, V domains shown, human IgG4PE, lambda) VH: EVQLVESGGGLVQPGRSLRLSCAASGFTFNDHVIYWVRQVPGKGLEWVSTISWNSDTIAYADSVKGRFTISRDNAKNALYLQMNSLRTEDTALYYCAREKDGDFYYDYFAMDVWGQGTTVTVSS VL: QSALTQPPSASGSPGQSVTLSCTGTSSDVGYYNYVSWYLQHPGKAPKLMIYEVSKRPSGVPDRFSGSKSANTASLTVSGLQAEDEADYYCSSYAGSNKVVFGGGTKVTVLG | no binding (tested: analyte up to 100 nM)
 |  |  |  |  |  |  |  |  | 1.73 | 0.206 | 2.84 |  | NORI-033 (antibody, human IgG4 S228P, lambda, V domains shown) VH: QLQLQESGPGLVKPSETLSLTCTVSGDSISSHTYWWGWIRQPPGKGLEWIGSMFYSGSTYYNPSLKSRVVISVDTSRNQFSLKVRSVTAADTAVFYCARHNNWGMENYFDDWGQGTLVTVSS VL: SYALTQPPSVSVSPGQTARITCSADALPDQYGYWYQQKPGQAPVLVIYKDSERPSGIPERFSGSSSGTTVTLTISGVQAEDEADYYCQSADSSGSYVVFGGGTKLTVLG | 
